Assay results: the supplement of paper PMC10567573

B1: WEE1 (parent)
chain: FISRTSIPNAASEEGDEDDWASNK

Variants of: B1
Assay: protein stability index of a GFP-peptide fusion (GPS, HEK-293T) (PSI 1-6); higher = more stable
Settings: c terminus: a fixed tail appended
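Further: lentivirally expressed fusions sorted by FACS into six bins by GFP to DsRed ratio, PSI derived from sequencing read proportions per bin multiplied by bin number.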

Protein stability index: each site, then its substitutions
A11: R 3.78; M 3.95; L 4.13; Q 4.21; H 4.4; T 4.19; E 4.37; W 2.45; D 4.12
N9: T 4.21; K 4.13; Q 4.28; W 2.46; P 3.91; L 3.79; F 2.87; I 3.77; Y 2.35; A 3.66; S 3.84; M 3.25; V 3.93
E14: G 3.33; P 3.98; L 3.56; W 3.02; A 4.43; T 3.99
I7: Q 4.37; A 4.21; R 3.58; D 4.84; T 4.53; C 3.83; K 4.28; M 4.41
F1: C 5.29; P 5.89; D 5.56; T 5.32; M 5.24; I 5.73; L 5.6; N 5.29
A21: F 3.72; H 4.09; K 4.21; N 3.76; M 3.77; E 4.5; D 4.77; W 3.53; Y 3.9; S 4.1
R4: N 4.64; F 3.15; A 3.49; S 4.2; Y 4.1
E17: D 4.06; N 2.13; A 3.73; W 3.04; H 4.05; R 3.67; P 3.37
K24: A 4.19; W 2.94; R 3.08; Y 3.94
P8: T 4.1; A 3.93; V 3.48; I 3.82; Y 2.16; S 4.05
E13: V 3.29; H 3.67; F 3.65; G 3.78; I 3.03; K 3.5; Y 3.46; P 4.43
N23: M 3.57; T 4.22; I 3.79; Y 3.64; E 4.22; W 3.65; S 4.16
D18: S 3.46; Y 2.5; G 3.55; R 3.81; V 3.35; T 3.5; C 3.28; E 4.22
S6: N 4.53; G 3.58; T 3.73; Q 3.89; F 1.83; P 3.79; Y 1.98; L 2.66
D19: A 3.77; T 3.58; V 3.02; F 2.31; E 3.96; R 3.5; Q 3.87
T5: Q 3.74; F 2.35; E 4.85; W 2.71; S 4.01
W20: V 4.81; I 4.21; H 4.44; E 4.75; D 4.92; A 4.79; T 4.46; K 3.42
D16: K 3.81; S 3.65; L 3.83; P 3.55; Q 4.02; V 3.86; W 3.23; Y 3.46; A 3.72; T 3.49; H 3.23
S3: L 3.95; P 3.67; Q 4.09; H 3.59; G 3.17; C 4.11; A 4.44; T 4.26
I2: L 5.06; H 3.36; G 5.75; R 5.32; F 5.38
S12: H 3.93; N 4.07; C 3.97; F 3.68; I 3.85; E 4.34; Q 4.3; T 3.56; Y 3.76; W 3.47
G15: D 4.12; Y 4.13; P 3.79; T 4.17; M 3.72; V 4.46
A10: L 3.93; H 4.06; P 4.21; V 3.57; Y 3.17; S 4.34; C 3.67; M 3.54
S22: V 3.96; D 4.51; P 3.14; Q 3.9; T 4.23; W 2.71; I 4.24; G 2.83
